This data set concerns the molecule itself. Put plainly: pull-down; GST- and MBP-tagged TMEM25-ECR incubated for 1 h at 4 °C in 150 mM NaCl, 0.1% Triton X-100, 20 mM Tris-HCl pH 7.6; glutathione-Sepharose beads; CBB staining or anti-MBP immunoblot. For orientation: A western blot detects proteins with antibodies after separation by electrophoresis.

B1: TMEM25-ECR (residues 27–220), GST- or MBP-tagged (domain or fragment, human, UniProt Q86YD3 27-220, looked up)
chain: ELEPQIDGQTWAERALRENERHAFTCRVAGGPGTPRLAWYLDGQLQEASTSRLLSVGGEAFSGGTSTFTVTAHRAQHELNCSLQDPRSGRSANASVILNVQFKPEIAQVGAKYQEAQGPGLLVVLFALVRANPPANVTWIDQDGPVTVNTSDFLVLDAQNYPWLTNHTVQLQLRSLAHNLSVVATNDVGVTSAS
notes: extracellular region (ECR), residues 27–220; bacterially expressed, non-glycosylated; also called GST–TMEM25-ECR; MBP–TMEM25-ECR; source: E. coli BL21, purified (glutathione-Sepharose 4B or amylose resin)
Regarding B1, the binding result was “binds”.

These data come from paper PMC10897455, “TMEM25 is a Par3-binding protein that attenuates claudin assembly during tight junction development” (EMBO Reports, 2023).
